Experimental findings from patent publication US20250340662A1 are described below.

Changes are numbered by the printed parent chain. A value given as a limit tells only on which side of the number the result lay.

T1: Human v6-peptide (human)
T1 sequence (peptide, N-terminal biotin): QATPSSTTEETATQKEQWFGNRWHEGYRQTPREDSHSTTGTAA

B1: BIWA4 IgG1 LALA (antibody, from another filing, V domains shown)
VH: EVQLVESGGGLVKPGGSLRLSCAASGFTFSSYDMSWVRQAPGKGLEWVSTISSGGSYTYYLDSIKGRFTISRDNAKNSLYLQMNSLRAEDTAVYYCARQGLDYWGRGTLVTVSS
VL: EIVLTQSPATLSLSPGERATLSCSASSSINYIYWYQQKPGQAPRLLIYLTSNLASGVPARFSGSGSGTDFTLTISSLEPEDFAVYYCLQWSSNPLTFGGGTKVEIKR
B2: BIWA4 IgG1 LALA IAHA (antibody, from another filing, V domains shown)
VH: B1 VH
VL: B1 VL
B3: AL-MN114-435 hIgG4 (antibody, V domains shown)
VH: EVQLLESGGGLVQPGGSLRLSCAASGFTFSSYAMSWVRQAPGKGLEWVSAISAGGSSTFYADSVKGRFTISRDNSKNTLYLQMNSLRAEDTAVYYCARHYYSDSDYRSSAAMDYWGQGTLVTVSS
VL: DIQMTQSPSSLSASVGDRVTITCRASQSISSYLNWYQQKPGKAPKLLIYAASSLQSGVPSRFSGSGSGTDFTLTISSLQPEDFATYYCQQDLYLLTFGQGTKLEIK
B4: AL-MN114-79 hIgG4 (antibody, V domains shown)
VH: B3 VH with S30R, Y32F, A50T
VL: B3 VL with S30A, S31N, S53T
B5: AL-MN114-18 hIgG4 (antibody, V domains shown)
VH: B3 VH with T28S, S30G, Y32F, A53G, F59Y
VL: B3 VL with S28T, S30A, A50T, S53N
B6: AL-MN114-465 hIgG4 (antibody, V domains shown)
VH: B3 VH with T28S, S30G
VL: B3 VL with A50T
B7: AL-MN114-451 hIgG4 (antibody, V domains shown)
VH: B3 VH with S56Y, F59Y
VL: B3 VL with S30G, A50T, S53T
B8: AL-MN114-439 hIgG4 (antibody, V domains shown)
VH: B3 VH with T28S, S30G, Y32F
VL: B3 VL
B9: AL-MN114-132 hIgG4 (antibody, V domains shown)
VH: B3 VH with A53G, F59Y
VL: B3 VL
B10: AL-MN114-71 hIgG4 (antibody, V domains shown)
VH: B3 VH with T28S, S30R, Y32F, A53G
VL: B3 VL with S53T
B11: AL-MN114-23 hIgG4 (antibody, V domains shown)
VH: B3 VH with T28S, S30R, S31N, Y32F, A53G, S56G
VL: B3 VL with S28N, A50S, S53I
B12: AL-MN114-145 hIgG4 (antibody, V domains shown)
VH: B3 VH with T28S, Y32F
VL: B3 VL with S30G, A50S, S53N
B13: AL-MN114-423 hIgG4 (antibody, V domains shown)
VH: B3 VH with S56T, F59Y
VL: B3 VL
B14: AL-MN114-93 hIgG4 (antibody, V domains shown)
VH: B3 VH with T28S, S30G, Y32F, F59Y
VL: B3 VL
B15: AL-MN114-126 hIgG4 (antibody, V domains shown)
VH: B3 VH with F59Y
VL: B3 VL
B16: AL-MN114-429 hIgG4 (antibody, V domains shown)
VH: B3 VH with T28S, Y32F, F59Y
VL: B3 VL
B17: AL-MN114-444 hIgG4 (antibody, V domains shown)
VH: B3 VH with S30R, Y32F, A53G
VL: B3 VL with S30G, A50S
B18: AL-MN114-19 hIgG4 (antibody, V domains shown)
VH: B3 VH with T28S, S30G, A53G
VL: B3 VL with A50S
B19: AL-MN114-460 hIgG4 (antibody, V domains shown)
VH: B3 VH with T28S, S30G, F59Y
VL: B3 VL with S30G, A50S
B20: AL-MN114-452 hIgG4 (antibody, V domains shown)
VH: B3 VH with T28S
VL: B3 VL with S30G, A50S
B21: AL-MN114-14 hIgG4 (antibody, V domains shown)
VH: B3 VH with A53G, G54S, S56R
VL: B3 VL
B22: AL-MN114-42 hIgG4 (antibody, V domains shown)
VH: B3 VH with A53G, S56Y, F59Y
VL: B3 VL with S28T, S30G, A50S, S53I

The target of the first assay is Human CD44v6 iso4-Fc (human) (UniProt P16070). The assay can be described thus: SPR SCK, antibody immobilised, CD44v6-Fc injected.
Sequence of Human CD44v6 iso4-Fc (human) (P16070 other isoform, or with tags, fused parts or gaps limits assumed): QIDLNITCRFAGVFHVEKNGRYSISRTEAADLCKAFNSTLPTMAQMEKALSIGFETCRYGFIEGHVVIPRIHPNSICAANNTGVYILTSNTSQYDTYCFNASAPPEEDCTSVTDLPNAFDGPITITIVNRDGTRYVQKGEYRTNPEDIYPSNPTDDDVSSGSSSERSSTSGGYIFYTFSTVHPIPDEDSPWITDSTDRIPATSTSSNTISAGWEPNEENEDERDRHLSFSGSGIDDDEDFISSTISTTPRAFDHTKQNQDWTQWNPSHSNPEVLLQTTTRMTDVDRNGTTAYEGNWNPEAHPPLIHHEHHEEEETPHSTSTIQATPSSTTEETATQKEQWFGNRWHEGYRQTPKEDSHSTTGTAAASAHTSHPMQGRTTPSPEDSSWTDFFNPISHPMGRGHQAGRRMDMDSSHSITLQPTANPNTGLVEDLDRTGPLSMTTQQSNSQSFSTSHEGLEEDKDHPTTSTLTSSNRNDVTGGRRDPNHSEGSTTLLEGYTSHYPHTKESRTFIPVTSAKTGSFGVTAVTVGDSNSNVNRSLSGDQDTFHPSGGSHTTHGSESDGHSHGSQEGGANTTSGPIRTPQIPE
What is called koff is a measure of how fast the partners let go of each other. Broadly, the kon is the second-order rate constant of association. Read a high kon as fast association. B1 showed an off-rate constant (koff) of 0.00027 s⁻¹ and a kon of 370000 M⁻¹ s⁻¹.
Take B2: the koff turned out to be 0.00033 s⁻¹ and the kon came to 24000 M⁻¹ s⁻¹.

A further assay has as its target CD44v6 on cultured cancer cells (BHT-101, ACT-1, A431) (human) (UniProt P16070). The assay can be described thus: live BHT-101 cells; apparent KD.
For B3, the Kd was below 0.2 nM.
Consider B4, for which the Kd is below 0.2 nM.
Regarding B5, the Kd is below 0.2 nM.
For B6, the Kd was below 0.2 nM.
Consider B7, for which the Kd was below 0.2 nM.
Consider B8, for which the Kd was below 0.2 nM.
As to B9, the Kd is below 0.2 nM.
Turning to B10, the Kd is below 0.2 nM.
Still for that read-out and setting: to B11 belongs below 0.2 nM.
With B12, the Kd is below 0.2 nM.
B13: the Kd was below 0.2 nM.
Turning to B14, the Kd was below 0.2 nM.
On to B15, for which the Kd is below 0.2 nM.
Turning to B16, the Kd was below 0.2 nM.
B17: the Kd was below 0.2 nM.
For the molecule B18, the Kd was below 0.2 nM.
In the case of B19, the Kd was below 0.2 nM.
Turning to B20, the Kd was below 0.2 nM.
Still for that read-out and setting: to B21 belongs below 0.2 nM; to B22, below 0.2 nM.

Another assay deals with Cynomolgus v6-peptide (cynomolgus). The assay can be described thus: SPR SCK, antibody immobilised, peptide injected.
Sequence of Cynomolgus v6-peptide (cynomolgus) (peptide, as listed by the source): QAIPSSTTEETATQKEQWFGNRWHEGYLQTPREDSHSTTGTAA
Regarding B1, the Kd was determined as 12 nM, the koff was 0.0035 s⁻¹ and the kon stood at 280000 M⁻¹ s⁻¹.
B2 had a Kd of 44 nM, a koff of 0.0036 s⁻¹ and a kon of 83000 M⁻¹ s⁻¹.

For a further assay, the target named is T1, Human v6-peptide (human). The assay can be described thus: SPR SCK, antibody immobilised, peptide injected.
As to B1, the Kd is 15 nM, the koff turned out to be 0.0035 s⁻¹ and the kon is 240000 M⁻¹ s⁻¹.
For B2, the Kd was determined as 73 nM, the koff worked out at 0.0027 s⁻¹ and the kon amounted to 36000 M⁻¹ s⁻¹.

A further assay deals with CD44v6 on cultured cancer cells (BHT-101, ACT-1, A431) (human) (UniProt P16070). The assay is described as follows: LigandTracer, 177Lu-antibody on A431 cells.
B6: the Kd turned out to be 0.03 nM.

The target is the same in a further assay. The assay can be described thus: LigandTracer, 125I-IgG4 on BHT-101 cells.
As for B3, the Kd came to 0.02 nM.
As for B4, the Kd is 0.03 nM.
Molecule B5 came in with a Kd of 0.02 nM.
Turning to B6, the Kd was 0.03 nM.
On to B7, for which the Kd was determined as 0.03 nM.
Take B10: the Kd came to 0.02 nM.
For the molecule B13, the Kd came to 0.1 nM.
As to B15, the Kd stood at 0.04 nM.
In turn, B16 had a Kd of 0.06 nM.
Take B17: the Kd is 0.02 nM.
Take B18: the Kd was 0.04 nM.
Take B22: the Kd was 0.04 nM.

The target of the next assay is Human CD44v6 iso4-Fc (human) (UniProt P16070). The assay can be described thus: SPR SCK, antibody immobilised, CD44v6-Fc injected; apparent KD.
As for B1, the Kd was determined as 0.72 nM.
Consider B2, for which the Kd was 14 nM.
